# Results published in publication PMC6234480.
# Where a chain is given by its changes, count along the chain named. In names and notes the source's numbering stands.
# B1: Wild‐type TIMP3 (Tissue Inhibitor of Metalloproteinase 3) (natural protein)
# chain: CTCSPSHPQDAFCNSDIVIRAKVVGKKLVKEGPFGTLVYTIKQMKMYRGFTKMPHVQYIHTEASESLCGLKLEVNKYQYLLTGRVYDGKMYTGLCNFVERWDQLTLSQRKGLNYRYHLGCNCKIKSCYYLPCFVTSKNECLWTDMLSNFGYPGYQSKHYACIRQKGGYCSWYRGWAPPDKSIINATDP
# modifications: endogenous glycosylation site at Asn184
# B2: TIMP3v2 (K22S/F34N TIMP3) (natural protein)
# chain: B1 chain with K22S, F34N
# modifications: additional glycosylation site (F34N), >95% occupancy by mass spectrometry; endogenous glycosylation site at Asn184
# B3: v82‐Fc (v82 with Fc fused in the C‐terminus) (Fc fusion)
# chain: B1 chain with H55N, Q57T, K71N, E73T, D87N, K89T, R115T
# modifications: additional glycosylation sites
# B4: TIMP3v82 (H55N/Q57T/K71N/E73T/D87N/K89T/R115T) (natural protein)
# chain: B1 chain with H55N, Q57T, K71N, E73T, D87N, K89T, R115T
# modifications: additional glycosylation sites, site‐specific glycosylation confirmed by mass spec analysis (data not shown); endogenous glycosylation site at Asn184
# B5: WT‐HSA (wild‐type TIMP3 fused with human serum albumin) (protein)
# chain: B1 chain
# B6: v2‐PEG (TIMP3v2 PEGylated with 20 kDa polyethylene glycol) (natural protein)
# chain: B1 chain with K22S, F34N
# modifications: 20 kDa polyethylene glycol (PEG), site not stated; additional glycosylation site (F34N)
# B7: v82‐HSA (TIMP3v82 fused with human serum albumin) (protein)
# chain: B1 chain with H55N, Q57T, K71N, E73T, D87N, K89T, R115T
# modifications: additional glycosylation sites
# B8: v2‐HSA (TIMP3v2 fused with human serum albumin) (protein)
# chain: B1 chain with K22S, F34N
# modifications: additional glycosylation site (F34N)
# B9: v2‐Fc (TIMP3v2 fused with Fc) (Fc fusion)
# chain: B1 chain with K22S, F34N
# modifications: additional glycosylation site (F34N)
# B10: N‐TIMP3 (13.9 kDa N‐domain; aa 1‐120) (domain or fragment)
# chain: CTCSPSHPQDAFCNSDIVIRAKVVGKKLVKEGPFGTLVYTIKQMKMYRGFTKMPHVQYIHTEASESLCGLKLEVNKYQYLLTGRVYDGKMYTGLCNFVERWDQLTLSQRKGLNYRYHLGC
# B11: N‐PEG (PEGylated N‐TIMP3) (domain or fragment)
# chain: B10 chain
# modifications: PEG, size and site not stated
# B12: N‐HSA (N‐TIMP3 fused with human serum albumin) (protein)
# chain: B10 chain
# B13: N‐Fc (N‐TIMP3 fused with Fc) (Fc fusion)
# chain: B10 chain
# Molecular target: human recombinant TACE (TNFα converting enzyme) (human) (UniProt P78536)
# Chain of UniProt P78536 (P78536 18-824): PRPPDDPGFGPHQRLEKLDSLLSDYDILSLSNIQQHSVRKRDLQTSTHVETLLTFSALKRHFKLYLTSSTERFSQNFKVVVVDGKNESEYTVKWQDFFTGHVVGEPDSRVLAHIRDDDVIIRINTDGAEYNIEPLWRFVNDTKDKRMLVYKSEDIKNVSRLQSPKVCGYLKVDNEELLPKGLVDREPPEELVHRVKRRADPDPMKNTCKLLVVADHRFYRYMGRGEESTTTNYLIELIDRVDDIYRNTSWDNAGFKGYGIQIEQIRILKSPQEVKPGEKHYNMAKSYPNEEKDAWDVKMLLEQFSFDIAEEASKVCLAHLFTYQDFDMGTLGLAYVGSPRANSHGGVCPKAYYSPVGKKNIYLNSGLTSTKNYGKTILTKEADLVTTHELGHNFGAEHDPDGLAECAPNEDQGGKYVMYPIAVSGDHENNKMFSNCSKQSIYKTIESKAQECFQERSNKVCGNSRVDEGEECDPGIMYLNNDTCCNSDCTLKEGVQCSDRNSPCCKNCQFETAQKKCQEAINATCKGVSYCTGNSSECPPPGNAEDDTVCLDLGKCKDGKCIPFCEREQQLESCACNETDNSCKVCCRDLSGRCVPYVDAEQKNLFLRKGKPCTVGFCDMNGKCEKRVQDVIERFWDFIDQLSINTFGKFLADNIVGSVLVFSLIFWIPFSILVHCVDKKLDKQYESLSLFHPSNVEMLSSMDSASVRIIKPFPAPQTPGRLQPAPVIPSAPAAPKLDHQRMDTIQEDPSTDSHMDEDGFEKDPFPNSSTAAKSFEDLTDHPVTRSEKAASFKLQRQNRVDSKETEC
row,Binder,IC50 of inhibition of human TACE activity (SensoLyte 520 TACE fluorimetric kit) [nM]
1,B1,59
2,B2,341
3,B3,156
4,B4,29
5,B5,12.1
6,B6,123
7,B7,145
8,B8,6800
9,B9,618
10,B10,59
11,B11,197
12,B12,195

# Molecular target: recombinant human MMP2 (pro‐MMP2 activated with APMA) (human)
# Sequence (P08253 30-660): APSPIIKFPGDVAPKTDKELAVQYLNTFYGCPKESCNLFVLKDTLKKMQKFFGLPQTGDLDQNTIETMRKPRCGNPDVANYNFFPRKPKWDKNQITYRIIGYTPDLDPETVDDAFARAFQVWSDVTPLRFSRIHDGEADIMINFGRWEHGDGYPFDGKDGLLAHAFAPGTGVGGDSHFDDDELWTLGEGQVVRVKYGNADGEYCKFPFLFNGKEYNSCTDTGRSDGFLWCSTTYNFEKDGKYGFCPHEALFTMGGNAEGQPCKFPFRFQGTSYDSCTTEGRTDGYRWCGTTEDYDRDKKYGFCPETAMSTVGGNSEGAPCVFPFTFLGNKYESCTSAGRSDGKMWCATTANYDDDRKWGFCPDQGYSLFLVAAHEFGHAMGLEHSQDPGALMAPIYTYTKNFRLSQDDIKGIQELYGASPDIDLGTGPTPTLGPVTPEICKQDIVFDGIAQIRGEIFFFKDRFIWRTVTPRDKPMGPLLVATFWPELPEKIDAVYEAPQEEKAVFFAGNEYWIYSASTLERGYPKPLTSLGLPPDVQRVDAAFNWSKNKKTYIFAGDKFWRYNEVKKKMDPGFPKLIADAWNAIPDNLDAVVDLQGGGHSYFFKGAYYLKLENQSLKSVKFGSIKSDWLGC
row,Binder,"IC50 of inhibition of human MMP2 activity (cleavage of 5-FAM/QXL 520 FRET peptide, 90 min, 37°C) [nM]"
1,B1,0.6
2,B2,0.9
3,B3,2.7
4,B4,1
5,B5,0.8
6,B6,0.4
7,B7,1.6
8,B8,5.1
9,B9,0.9
10,B10,5.8
11,B11,9.8
12,B13,9.7
13,B12,6

# Molecular target: recombinant rat MMP9 (rat pro‐MMP9) (rat) (UniProt P50282)
# Chain of UniProt P50282 (P50282 20-708): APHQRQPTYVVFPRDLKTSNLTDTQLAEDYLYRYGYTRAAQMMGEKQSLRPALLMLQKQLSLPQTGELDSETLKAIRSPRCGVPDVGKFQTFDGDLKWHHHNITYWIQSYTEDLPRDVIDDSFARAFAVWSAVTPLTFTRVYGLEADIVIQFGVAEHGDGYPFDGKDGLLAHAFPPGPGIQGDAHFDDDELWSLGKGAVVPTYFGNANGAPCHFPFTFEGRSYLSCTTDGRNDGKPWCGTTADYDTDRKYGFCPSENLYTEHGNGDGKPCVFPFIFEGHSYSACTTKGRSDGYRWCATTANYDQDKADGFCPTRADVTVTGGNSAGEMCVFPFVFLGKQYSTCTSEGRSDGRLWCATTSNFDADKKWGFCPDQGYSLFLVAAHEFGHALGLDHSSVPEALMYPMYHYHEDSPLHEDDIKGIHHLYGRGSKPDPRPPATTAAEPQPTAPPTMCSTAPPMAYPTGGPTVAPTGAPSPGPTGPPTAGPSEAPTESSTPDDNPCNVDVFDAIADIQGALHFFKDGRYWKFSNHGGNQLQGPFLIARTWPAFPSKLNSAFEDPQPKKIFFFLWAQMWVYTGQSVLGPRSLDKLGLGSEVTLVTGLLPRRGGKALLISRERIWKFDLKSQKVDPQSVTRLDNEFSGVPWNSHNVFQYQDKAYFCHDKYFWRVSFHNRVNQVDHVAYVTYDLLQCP
row,Binder,"IC50 of inhibition of rat MMP9 activity (cleavage of 5-FAM/QXL 520 FRET peptide, 37°C) [nM]"
1,B1,0.9
2,B2,15.5
3,B3,77
4,B4,14.3
5,B5,50.8
6,B6,60
7,B7,152
8,B8,65
9,B9,36
10,B10,2.4
11,B11,1.3
12,B12,10.8

# Molecular target: recombinant rat MMP2 (pro‐MMP2 activated with APMA) (rat)
# Sequence (P33436 110-662): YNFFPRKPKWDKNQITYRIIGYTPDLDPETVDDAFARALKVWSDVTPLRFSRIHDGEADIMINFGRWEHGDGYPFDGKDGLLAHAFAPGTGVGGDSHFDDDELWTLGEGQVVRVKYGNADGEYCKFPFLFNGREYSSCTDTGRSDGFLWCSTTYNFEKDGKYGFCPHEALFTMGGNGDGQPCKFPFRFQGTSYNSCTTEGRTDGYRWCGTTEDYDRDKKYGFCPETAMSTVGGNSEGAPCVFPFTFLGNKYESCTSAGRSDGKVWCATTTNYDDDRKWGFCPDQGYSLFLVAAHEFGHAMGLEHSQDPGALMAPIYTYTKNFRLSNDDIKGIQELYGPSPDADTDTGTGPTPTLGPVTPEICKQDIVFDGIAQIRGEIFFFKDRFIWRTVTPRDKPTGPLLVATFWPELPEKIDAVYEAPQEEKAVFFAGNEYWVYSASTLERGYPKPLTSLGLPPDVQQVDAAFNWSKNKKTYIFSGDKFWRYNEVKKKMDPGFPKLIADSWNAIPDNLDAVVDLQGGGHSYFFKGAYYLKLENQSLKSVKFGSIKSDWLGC
row,Binder,"IC50 of inhibition of rat MMP2 activity (cleavage of 5-FAM/QXL 520 FRET peptide, 90 min, 37°C) [nM]"
1,B1,1.4
2,B2,0.5
3,B3,1
4,B4,0.2
5,B5,0.2
6,B6,0.1
7,B7,0.3
8,B8,0.7
9,B9,0.9
10,B10,3.4
11,B11,1.7
12,B12,3.6

# Molecular target: catalytic domain of human MMP9 (human)
# Sequence (P14780 20-707): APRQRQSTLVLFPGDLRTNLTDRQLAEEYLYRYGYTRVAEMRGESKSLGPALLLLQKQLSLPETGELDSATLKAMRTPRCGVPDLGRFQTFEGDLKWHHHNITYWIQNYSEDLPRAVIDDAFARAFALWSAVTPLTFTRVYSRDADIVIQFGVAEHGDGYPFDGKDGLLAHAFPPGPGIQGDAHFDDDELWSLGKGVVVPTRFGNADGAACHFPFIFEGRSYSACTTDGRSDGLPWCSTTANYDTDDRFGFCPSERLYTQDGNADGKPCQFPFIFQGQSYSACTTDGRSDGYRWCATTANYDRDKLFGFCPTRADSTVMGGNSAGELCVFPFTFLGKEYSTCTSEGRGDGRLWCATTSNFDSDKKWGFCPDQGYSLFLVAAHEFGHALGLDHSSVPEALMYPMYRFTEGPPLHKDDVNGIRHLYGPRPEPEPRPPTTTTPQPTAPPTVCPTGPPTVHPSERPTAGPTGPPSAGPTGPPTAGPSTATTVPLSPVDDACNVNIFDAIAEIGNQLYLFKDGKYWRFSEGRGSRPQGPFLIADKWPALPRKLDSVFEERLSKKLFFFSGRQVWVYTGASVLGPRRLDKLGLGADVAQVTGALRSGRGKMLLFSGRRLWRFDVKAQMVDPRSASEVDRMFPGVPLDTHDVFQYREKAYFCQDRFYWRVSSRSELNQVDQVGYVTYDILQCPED
row,Binder,"IC50 of inhibition of human MMP9 activity (cleavage of 5-FAM/QXL 520 FRET peptide, 37°C) [nM]"
1,B1,0.9
2,B2,6.9
3,B3,10.5
4,B4,2.3
5,B5,0.6
6,B6,9
7,B7,7.4
8,B8,16
9,B9,10
10,B10,1.5
11,B11,0.7
12,B13,1.6
13,B12,1.1
